No end group written: not given here. *: point of attachment. FITC = O=C1OC2(c3ccc(O)cc3Oc3cc(O)ccc32)c2ccc(NC(=S)*)cc21
Legend:
[1] = target: VA Peptide (fluorescence polarization) (FITC on the C-terminal lysine); test: fluorescence polarization, FITC peptide titrated with protein
[2] = target: T1, AA Peptide (fluorescence polarization), AAKLDEESILKQ{LYS(FITC)}; test: as above
T1 peptide: AAKLDEESILKQK(FITC)

[3] = target: T2, MA Peptide (fluorescence polarization); test: as above
T2 peptide: MAKLDEESILKQK(FITC)

[4] = target: T3, IA peptide (Octet assay of PS557 variants); test: Octet (BLI), peptide on sensor, response after 200 s association
T3 construct: Peptide coated on the Octet sensor
Description: (§1) In the high-throughput assay, Octet sensors are coated with the peptide of interest and dipped in buffer containing the purified protein. […] Studying the on and off-rate can also give insight into the mechanism of binding.

[5] = target: T4, LA peptide (Octet assay of PS557 variants); test: as above
T4 construct: Peptide coated on the Octet sensor
Description: as §1

[6] = target: T5, MA peptide (Octet assay of PS557 variants); test: as above
T5 construct: Peptide coated on the Octet sensor
Description: as §1

[7] = target: T6, FA peptide (Octet assay of PS557 variants); test: as above
T6 construct: Peptide coated on the Octet sensor
Description: as §1

[8] = target: T7, VA peptide (Octet assay of PS557 variants); test: as above
T7 construct: Peptide coated on the Octet sensor
Description: as §1

[9] = target: T8, AA peptide (Octet assay of PS557 variants); test: as above
T8 construct: Peptide coated on the Octet sensor
Description: as §1

[10] = target: T9, LA Peptide (fluorescence polarization); test: fluorescence polarization, FITC peptide titrated with protein
T9 peptide: LAKLDEESILKQK(FITC)

[11] = target: T10, KA peptide (Octet assay of PS621 variants); test: Octet (BLI), 30 C
T10 construct: XAKLDEESILKQK with X = K
T10 peptide: KAKLDEESILKQK

[12] = target: T11, RA peptide (Octet assay of PS621 variants); test: Octet (BLI), 30 C
T11 construct: X… with X = R
Description: (§2) Peptides of the sequence RXKLDEESILKQK (SEQ ID NO: 1076) were also used to evaluate the penultimate residue effect.

[13] = target: T12, RS peptide (Octet assay of PS621 variants); test: Octet (BLI), 30 C
T12 construct: RXKLDEESILKQK with X = S
T12 peptide: RSKLDEESILKQK
Description: as §2

[14] = target: T13, RL peptide (Octet assay of PS621 variants); test: Octet (BLI), 30 C
T13 construct: RXKLDEESILKQK with X = L
T13 peptide: RLKLDEESILKQK
Description: as §2

[15] = target: T14, RR peptide (Octet assay of PS621 variants); test: Octet (BLI), 30 C
T14 construct: RX… with X = R
Description: as §2

[16] = target: T15, RF peptide (Octet assay of PS621 variants); test: Octet (BLI), 30 C
T15 construct: RX… with X = F
Description: as §2

[17] = target: T16, RE peptide (Octet assay of PS621 variants); test: Octet (BLI), 30 C
T16 construct: RXKLDEESILKQK with X = E
T16 peptide: REKLDEESILKQK
Description: as §2

[18] = target: T17, RQ peptide (Octet assay of PS621 variants); test: Octet (BLI), 30 C
T17 construct: RX… with X = Q
Description: as §2

[19] = target: T18, RA peptide (XAKLDEESILKQK-FITC, X = R); test: fluorescence polarization titration, 20 C
T18 construct: also called peptide with N-terminal arginine
T18 peptide: RAKLDEESILKQK(FITC)
Protocol: (§3) Binding affinity was measured by polarization using a labeled peptide. The polarization response and total intensity measurements were carried out at 20° C. on a microplate fluorometer with 480 nm excitation and 530 nm emission. […] Multiple analyses were performed at increasing recognizer concentration at a fixed concentration of a target peptide to obtain a titration curve. An equilibrium polarization response at each concentration was plotted and fit to calculate the KD.
(§4) Fluorescence polarization assays were performed with all candidates, and single point binding responses were measured at a fixed concentration of the binders (FIG. 13A). […] We carried out multiple polarization binding titration analysis at increasing concentration of binder protein, and the Kds were determined from the titration curves (FIG. 13B).

[20] = target: T19, HA peptide (Octet assay of PS621 variants); test: Octet (BLI), 30 C
T19 construct: XAKLDEESILKQK with X = H
T19 peptide: HAKLDEESILKQK

[21] = target: T20, HA peptide (XAKLDEESILKQK-FITC, X = H); test: fluorescence polarization titration, 20 C
T20 construct: also called peptide with N-terminal histidine
T20 peptide: HAKLDEESILKQK(FITC)
Protocol: as §3, §4

B1: PS769 (designed binder)
chain: MPTAASATESAIEDTPAPARPEVDGRTKPKRQPRYHVVLWDDDDHTYQYVVVMLQSLFGHPPERGYRLAKEVDTQGRVIVLTTTREHAELKRDQIHAFGYDRLLARSKGSMKASIEAEE
notes: Variant of PS557; also called N41D
B1 gave a Kd [1] of 0.276 µM and a Kd [2] of 8.7 µM.

B2: PS816 (designed binder)
chain: MPTAASATESAIEDTPAPARPEVDGRTKPKRQPRYHVVLWDDDDHTYQYVVVMLQSLFGHPPERGYRLAKEMDTQGRVIVLTTTREHAELKRDQIHAFGYDRLLARSKGSMKASIEAEE
notes: Variant of PS557; also called N41D, V72M
In the case of B2, the Kd [1] is reported as 0.266 µM, the Kd [2] is reported as 7.59 µM and the Kd [3] is reported as 0.805 µM.

B3: PS960 (designed binder)
chain: MPTAASATESAIEDTPAPARPEVDGRTKPKRQPRYHVVLWDDDDHTYQYVVVMLRSLFGIPPERGYRLAKEMDTQGRVIVLTTTREHAELKRDQIHAFGYDRLLARSKGSMKASIEAEE
notes: Variant of PS557
B3 was tested, and the Octet response [4] was 9.98 nm, the Octet response [5] was 10.5 nm and the Octet response [6] was 6.86 nm. For the same binder, the Octet response [7] was 0.0851 nm, the Octet response [8] was 9.29 nm and the Octet response [9] was 1.68 nm.

B4: PS963 (designed binder)
chain: MPTAASATESAIEDTPAPARPEVDGRTKPKRQPRYHVVLWDDDDHTYQYVVVMLRSLFGHPPARGYRLAKEMDTQGRVIVLTTTREHAELKRDQIHAFGRDRLLARSKGSMKASIEAEE
notes: Variant of PS557
B4 showed an Octet response [4] of 10.2 nm, an Octet response [5] of 9.65 nm and an Octet response [6] of 8.4 nm. The Octet response [7] was 2.25 nm, the Octet response [8] was 10.4 nm and the Octet response [9] was 4.06 nm.

B5: PS962 (designed binder)
chain: MPTAASATESAIEDTPAPARPEVDGRTKPKRQPRYHVVLWDDDDHTYQYVVVMLRSLFGHPYARGYRLAKEMDTQGRVIVLTTTREHAELKRDQIHAFGRDRLLARSKGSMKASIEAEE
notes: Variant of PS557
Binder B5 has an Octet response [4] of 10.7 nm, an Octet response [5] of 10.5 nm and an Octet response [6] of 8.37 nm. It also gave an Octet response [7] of 2.57 nm, an Octet response [8] of 10.7 nm and an Octet response [9] of 3.76 nm.

B6: PS857 (designed binder)
chain: MPTAASATESAIEDTPAPARPEVDGRTKPKRQPRYHVVLWDDDDHTYQYVVVMLQSLFGHPPERGYRMAKEMDTQGRVIVLTTTREHAELKRDQIHAFGYDRLLARSKGSMKASIEAEE
notes: Variant of PS557; also called N41D, V72M, L68M
With B6 the Kd [1] was 0.487 µM, the Kd [2] was 15 µM and the Kd [10] was 0.007 µM. For the same binder, the Kd [3] was 0.746 µM.

B7: PS934 (designed binder)
chain: MPTAASATESAIEDTPAPARPEVDGRTKPKRQPRYHVVLWDDDDHTYQYVVVMLQSLFGHPRERGYRMAKEMDTQGRVIVLTTTREHAELKRDQIHAFGYDRLLARSKGSMKASIEAEE
notes: Variant of PS557; also called N41D, V72M, L68M, P62R
Binder B7 has a Kd [2] of 5.33 µM and a Kd [3] of 0.325 µM.

B8: PS961 (designed binder)
chain: MPTAASATESAIEDTPAPARPEVDGRTKPKRQPRYHVVLWDDDDHTYQYVVVMLRSLFGHPPSRGYRMAKEMDTQGRVIVLTTTREHAELKRDQIHAFGRDRLLARSKGSMKASIEAEE
notes: Variant of PS557; also called N41D, V72M, Q55R, E63S, L68M, Y100R
B8 was tested, and the Octet response [4] was 11.5 nm, the Octet response [5] was 11.8 nm and the Octet response [6] was 9.26 nm. The Octet response [7] was 2.05 nm, the Octet response [8] was 11.3 nm and the Octet response [9] was 4.87 nm. The Kd [2] was 3.3 µM and the Kd [3] was 0.143 µM.

B9: PS968 (designed binder)
chain: MPTAASATESAIEDTPAPARPEVDGRTKPKRQPRYHVVLWNDDDHTYQYVVVMLRSLFGHPPERGYRLAKEMDTQGRVIVLTTTREHAELKRDQIHAFGRDRLLARSKGSMKASIEAEE
notes: Variant of PS557; also called V72M, Q55R, Y100R
B9 gave a Kd [2] of 5.44 µM and a Kd [3] of 0.395 µM.

B10: PS1101 (designed binder)
chain: MHSKFSHAGRICGAKFKVREPIYRCKECSFDDTCVLCVNCFNPKDHTGHHVYTTICTEFNNGICDCGDKEAWNHTLFCKAEEG
notes: Variant of PS621
In the case of B10, the Octet response [11] is reported as 1.4, the Octet response [12] is reported as 6.5 and the Octet response [13] is reported as 4.3. The Octet response [14] was 7.7, the Octet response [15] was 2.8 and the Octet response [16] was 6. It also gave an Octet response [17] of 1.9, an Octet response [18] of 4.7 and a Kd [19] of 1.55 µM.

B11: PS1102 (designed binder)
chain: MHSKFSHAGRICGAKFKVGEPIYRCKECQFDDTCVLCVNCFNPKDHTGHHVYTTICTEFNNGICDCGDKEAWNHTLFCKAEEG
notes: Variant of PS621
With B11 the Octet response [11] was 6.6, the Octet response [20] was 2.5 and the Octet response [12] was 8.6. The Octet response [13] was 8.5, the Octet response [14] was 10.4 and the Octet response [15] was 7. The Octet response [16] was 9.3, the Octet response [17] was 6.6 and the Octet response [18] was 9.3. The Kd [19] was 0.638 µM.

B12: PS1104 (designed binder)
chain: MHSKFSHAGRICGAKFKVGEPIYRCKECSFDDTCVLCVNCFNPKDHRGHHVYTTICTEFNNGICDCGDKEAWNHTLFCKAEEG
notes: Variant of PS621
In the case of B12, the Octet response [11] is reported as 7.3, the Octet response [20] is reported as 3.4 and the Octet response [12] is reported as 9.4. The Octet response [13] was 8.9, the Octet response [14] was 11.3 and the Octet response [15] was 8. For the same binder, the Octet response [16] was 10.5, the Octet response [17] was 7.6 and the Octet response [18] was 9.7.

B13: PS1105 (designed binder)
chain: MHSKFSHAGRICGAKFKVGEPIYRCKECSFDDTCVLCVNCFNPKDHTRHHVYTTICTEFNNGICDCGDKEAWNHTLFCKAEEG
notes: Variant of PS621
B13 showed an Octet response [11] of 2.6, an Octet response [20] of 0.2 and an Octet response [12] of 6.5. The Octet response [13] was 5.5, the Octet response [14] was 7.5 and the Octet response [15] was 4.4. It also gave an Octet response [16] of 7.2, an Octet response [17] of 2.9 and an Octet response [18] of 5.9.

B14: PS1107 (designed binder)
chain: MHSKFSHAGRICGAKFKVGEPIYRCKECSFDDTCVLCVNCFNPKDHTGHHVYTTICREFNNGICDCGDKEAWNHTLFCKAEEG
notes: Variant of PS621
Work on B14 yielded an Octet response [11] of 3.9, an Octet response [20] of 0.6 and an Octet response [12] of 7.8. It also gave an Octet response [14] of 8.1, a Kd [19] of 0.298 µM and a Kd [21] of 3.83 µM.

B15: PS1118 (designed binder)
chain: MHSKFSHAGRICGAKFKVGEPIYRCKECSFDDTCVLCVNCFNPKDHTGHHVYTTICTKFNNGICDCGDKEAWNHTLFCKAEEG
notes: Variant of PS621
Binder B15 has an Octet response [11] of 5, an Octet response [20] of 1.8 and an Octet response [12] of 9.8. The Octet response [14] was 10.6, the Kd [19] was 0.271 µM and the Kd [21] was 6.18 µM.

B16: PS1120 (designed binder)
chain: MHSKFSHAGRICGAKFKVGEPIYRCKECSFDDTCVLCVNCFNPKDHTGHHVYTKICTEFNNGICDCGDKEAWNHTLFCKAEEG
notes: Variant of PS621
With B16 the Octet response [11] was 5.5, the Octet response [20] was 1.7 and the Octet response [12] was 9.9. For the same binder, the Octet response [13] was 8.3, the Octet response [14] was 11.7 and the Octet response [15] was 5.9. For the same binder, the Octet response [16] was 10.2, the Octet response [17] was 8.8 and the Octet response [18] was 9.5.

B17: PS1119 (designed binder)
chain: MHSKFSHAGRICGAKFKVGEPIYRCKECSFDDTCVLCVNCFNPKDHTGHHVYTTICKEFNNGICDCGDKEAWNHTLFCKAEEG
notes: Variant of PS621
With B17 the Octet response [11] was 3.3, the Octet response [20] was 0.7 and the Octet response [12] was 8.6. It also gave an Octet response [14] of 9.6, a Kd [19] of 0.289 µM and a Kd [21] of 11.4 µM.

— patent US20240272170A1 (QUANTUM SI, published 2024)
